Measured values reported in US20140327158A1 (E3X BIO, published 2014).

Target: T1, HA-UbVS (HA-tagged ubiquitin vinyl sulfone activity probe) (UniProt P0CG48 1-75, C-terminal vinyl sulfone (VS) electrophilic trap)
T1 construct: Bought from Boston Biochem. Reacts covalently with the active site cysteine after specific recognition of Ub; also called Ub-vinyl sulfone
Test: HA-UbVS activity probe labeling, gel shift
Text: Reactions were terminated by the addition of SDS loading buffer.

B1: Parkin RBR (residues 238-465) (enzyme, UniProt O60260 238-465, looked up)
chain: CITCTDVRSPVLVFQCNSRHVICLDCFHLYCVTRLNDRQFVHDPQLGYSLPCVAGCPNSLIKELHHFRILGEEQYNRYQQYGAEECVLQMGGVLCPRPGCGAGLLPEPDQRKVTCEGGNGLGCGFAFCRECKEAYHEGECSAVFEASGTTTQAYRVDERAAEQARWEAASKETIKKTTKPCPRCHVPVEKNGGCMHMKCPQPQCRLEWCWNCGCEWNRVCMGDHWFDV
notes: range 238-465; also called RBR domain of Parkin
binding result: binds
